Measurements: PMC6736767
Like-named read-outs stand apart in the source and are kept apart here.

Legend:
BpuR [1] = biological target: T1, BpuR (Borrelia burgdorferi, UniProt O51076 1-122); experiment: EMSA
T1 sequence: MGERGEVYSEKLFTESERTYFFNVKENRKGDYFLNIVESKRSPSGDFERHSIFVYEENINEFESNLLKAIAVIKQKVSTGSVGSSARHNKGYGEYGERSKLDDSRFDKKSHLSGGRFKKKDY

BpuR [2] = biological target: T1, BpuR; experiment: EMSA; remark: listed apart in the source

B1: bpuR RNA (ssRNA)
RNA: ACGUUAAAUGUAGUCAAGUACAAAAACUUGUGUGGAGGAAAUUGAUGGGAGAGAGAGGGGAAGUAUACU
B1: binds (BpuR [1]).

B2: sodA2 (ssRNA)
RNA: UCAUGGCAAAAGUUAAAACAGGAGGUUUUUAUGUUUAAGCUGCCAGAACUUGGUUAUGAU
B2: no binding (BpuR [2]).

B3: sodA1 (ssRNA)
RNA: AAUGAGCCUUGUUAUUGUGGAAGUGGGAAGAAAUAUAAAAAUUGUCAUGGCAAAAGUUA
B3: binds (BpuR [1]).
